Eight molecules from patent publication US20190322750A1 (Y BIOLOGICS, published 2019) can be followed below.

Where only a bound is given, the exact number is not on record here.

Test [1] concerns the target T1, PD-L1 on CHO cell line highly expressing PD-L1 (PD-1/PD-L1 blockade bioassay kit, promega J1250) (UniProt Q9NZQ7 19-290, limits assumed). In words: cell-based or functional assay.
The target of test [2] is T1, PD-L1 on CHO cell line highly …. As to the kind of experiment: cell-based or functional assay. The source holds these as a separate data set.
In test [3] the target is T2, human PD-L1 over-expressed on HEK293E cells (human, UniProt Q9NZQ7 19-290).
T2 construct: whole, on cells; also called human PD-L1 (NM_014143.2)
T2 sequence (Q9NZQ7 19-290): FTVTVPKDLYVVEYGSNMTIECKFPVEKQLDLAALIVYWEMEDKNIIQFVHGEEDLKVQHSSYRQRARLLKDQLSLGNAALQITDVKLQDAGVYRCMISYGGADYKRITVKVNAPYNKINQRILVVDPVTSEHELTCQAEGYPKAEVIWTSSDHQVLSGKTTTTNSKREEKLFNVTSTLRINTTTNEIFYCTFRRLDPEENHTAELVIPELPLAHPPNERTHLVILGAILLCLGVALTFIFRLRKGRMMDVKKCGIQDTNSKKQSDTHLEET
As to the kind of experiment: flow cytometry on HEK293E/PD-L1 cells, FITC anti-human IgG, serial dilutions; fit table. On the procedure: 0.5 to 1×10⁶ cells per sample were prepared from the transformation cell pools highly expressing human PD-L1, and antibodies were serially diluted at a constant dilution rate and reacted with the prepared cells at 4° C. for 20 minutes. Then, the cells were washed three times with PBS (#LB001-02, Welgene) containing 2% fetal bovine serum and reacted at 4° C. for 20 minutes with an anti-human IgG antibody (#FI-3000, Vectorlabs) conjugated with a FITC (fluorescein isothiocyanate) fluorescent substance. Then, the cells were subjected to the same washing process as above and then suspended in 0.5 ml of PBS containing 2% FBS (#26140-079, Thermo Fisher) with an FACSCanto II flow cytometer (BD Biosciences, USA) as a flow cytometer (Table 11).
On the technique in general: In flow cytometry, cells or beads pass a laser one at a time.

In a further test the target is T3, PD-L1-hFc (human, UniProt Q9NZQ7 19-238).
T3 construct: extracellular domain; Made in HEK-293F cells, protein A purified; also called PD-L1 antigen; PD-L1 protein
T3 sequence (Q9NZQ7 other isoform, or with tags, fused parts or gaps limits assumed): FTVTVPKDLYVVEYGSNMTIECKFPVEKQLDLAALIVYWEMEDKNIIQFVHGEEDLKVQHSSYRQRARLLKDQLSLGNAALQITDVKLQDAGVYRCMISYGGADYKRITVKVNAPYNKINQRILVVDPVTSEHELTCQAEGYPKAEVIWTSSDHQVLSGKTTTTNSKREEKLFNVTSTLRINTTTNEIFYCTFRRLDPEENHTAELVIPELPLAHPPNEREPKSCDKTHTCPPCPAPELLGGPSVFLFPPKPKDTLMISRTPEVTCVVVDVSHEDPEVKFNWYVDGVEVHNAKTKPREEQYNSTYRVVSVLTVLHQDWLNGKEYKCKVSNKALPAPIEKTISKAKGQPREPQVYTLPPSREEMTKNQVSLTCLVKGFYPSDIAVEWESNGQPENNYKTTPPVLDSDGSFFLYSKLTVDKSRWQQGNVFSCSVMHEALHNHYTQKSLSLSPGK
As to the kind of experiment: kinetics on PD-L1-hFc (legend paragraph 40; text names ProteOn XPR36, the sheet's sensorgrams have a nm axis).

T1 sequence (Q9NZQ7 19-290 limits assumed): as the sequence (Q9NZQ7 19-290) above

B1: PDL1-16E12 (LS/4H5) (antibody, V domains shown)
VH: QMQLVQSGAEVKKPGSSVKVSCKASGGTFSSYAISWVRQAPGQGLEWMGRIIPILGIANYAQKFQGRVTITADKSTSTAYMELSSLRSEDTAVYYCAKPRDGYNLVAFDIWGQGTMVTVSS
VL: QLVLTQPPSVSGAPGQRVTISCTGSSSNIGAGYDVHWYQQLPGTAPKLLIYGNSNRPSGVPDRFSGSKSGTSASLAITGLQAEDEADYYCQSYDSSLSGGVFGGGTKLTVL
notes: also called PD-L1-16E12-4H5
The Kd is the concentration at which binding is half-saturated. One may read the koff as the rate constant with which the complex falls apart. A high value points to a short-lived complex. For orientation: kon means the rate constant with which the complex forms. Take B1: in test [1], the “Average *EC50 [nM], PD-1/PD-L1 blockade bioassay” value (shortened to “Average *EC50 [nM]”) worked out at 0.33 nM. Moreover, in test [2], the “EC50 (first run)” value was determined as 0.43 nM and the “EC50 (second run)” value amounted to 0.26 nM. For the same molecule, in test [3], the Bmax came out at 4020 and the Kd is 1.93 nM. Further, in the test with PD-L1-hFc, the Kd was less than 0.001 nM, the off-rate constant (koff) is less than 1e-07 s⁻¹ and the kon is 226000 M⁻¹ s⁻¹.

B2: PDL1-16E12 (LS/4B11) (antibody, V domains shown)
VH: QMQLVQSGAEVKKPGSSVKVSCKASGGTFSSYAISWVRQAPGQGLEWMGRIIPILGIANYAQKFQGRVTITADKSTSTAYMELSSLRSEDTAVYYCAKPRDGYNLVAFDIWGQGTMVTVSS
VL: QLVLTQPPSVSGAPGQRVTISCTGTNSNIGAGHDVQWYQQIPGTAPKLLIYGNNNRPSGVPDRFSGSKSGTLASLAITGLQSEDEADYYCHSYDGSLSEGVFGTGTKVTVL
Take B2: in test [1], the “Average *EC50 [nM]” value is 0.63 nM.

B3: PDL1-16E12 (LS/4E12) (antibody, V domains shown)
VH: QMQLVQSGAEVKKPGSSVKVSCKASGGTFSSYAISWVRQAPGQGLEWMGRIIPILGIANYAQKFQGRVTITADKSTSTAYMELSSLRSEDTAVYYCAKPRDGYNLVAFDIWGQGTMVTVSS
VL: QLVLTQPPSVSAAPGQKVTFSCTGSSSNIGAGYDVHWYQHLPGAAPRLLIYANTNRPLGVPDRFSGSKSGTSASLAITGLQAEDEADYYCQSYDNRLSGSLFGGGTKLTVL
As to B3, the “Average *EC50 [nM]” value in test [1] was 0.49 nM.

B4: PDL1-16E12 (LS/4B8) (antibody, V domains shown)
VH: QMQLVQSGAEVKKPGSSVKVSCKASGGTFSSYAISWVRQAPGQGLEWMGRIIPILGIANYAQKFQGRVTITADKSTSTAYMELSSLRSEDTAVYYCAKPRDGYNLVAFDIWGQGTMVTVSS
VL: QLVLTQPPSVSGAPGQSVTISCTGSNSDIGAGHDVHWYQQLPGAAPKLLIHGDRDRPSGVPDRFSGSKSGTSASLAITGLQPEDEADYYCQSYNNSLRGSVFGTGTKVTVL
As to B4, in test [1], the “Average *EC50 [nM]” value was found to be 188 nM.

B5: PDL1-16E12 (LS/4C9) (antibody, V domains shown)
VH: QMQLVQSGAEVKKPGSSVKVSCKASGGTFSSYAISWVRQAPGQGLEWMGRIIPILGIANYAQKFQGRVTITADKSTSTAYMELSSLRSEDTAVYYCAKPRDGYNLVAFDIWGQGTMVTVSS
VL: QLVLTQPPSVSGAPGQRVTISCTGGSSNIGAGYDVHWYQQLPGTAPKLLLFGNTNRPSGVPGRFSGSKSGSSASLAITGLQSDDEADYYCQSYDSSLGGSVIGTGTKVTVL
notes: also called PD-L1-16E12-4C9
As for B5, the “Average *EC50 [nM]” value in test [1] was found to be 0.39 nM. In addition, in test [2], the “EC50 (first run)” value stood at 0.4 nM and the “EC50 (second run)” value was found to be 0.4 nM. For the same molecule, in test [3], the Bmax stood at 4400 and binding was put at a Kd of 2.42 nM. In the test with PD-L1-hFc, binding was put at a Kd of 0.0158 nM, the off-rate (koff) was 2.62e-06 s⁻¹ and the kon is 166000 M⁻¹ s⁻¹.

B6: PDL1-16E12 (LS/4H8) (antibody, V domains shown)
VH: QMQLVQSGAEVKKPGSSVKVSCKASGGTFSSYAISWVRQAPGQGLEWMGRIIPILGIANYAQKFQGRVTITADKSTSTAYMELSSLRSEDTAVYYCAKPRDGYNLVAFDIWGQGTMVTVSS
VL: QLVLTQPSSVSGAPGQRVTISCTGSSSNIGAGYDVHWYQQLPGTAPKLLIYGNSNRPSGVPDRFSGSKSGTSASLAITGLQAEDEADYYCQSYDSSLSGSGVFGTGTKVTVL
notes: also called PD-L1-16E12-4H8
As for B6, the “Average *EC50 [nM]” value in test [1] came to 0.36 nM. Besides, in test [2], the “EC50 (first run)” value was determined as 0.43 nM and the “EC50 (second run)” value worked out at 0.31 nM. Also, in test [3], the Bmax was found to be 3990 and binding was put at a Kd of 1.98 nM. In the test with PD-L1-hFc, this molecule showed a Kd of less than 0.001 nM, a koff of less than 1e-07 s⁻¹ and a kon of 240000 M⁻¹ s⁻¹.

B7: PDL1-16E12 (LS/4A11) (antibody, V domains shown)
VH: QMQLVQSGAEVKKPGSSVKVSCKASGGTFSSYAISWVRQAPGQGLEWMGRIIPILGIANYAQKFQGRVTITADKSTSTAYMELSSLRSEDTAVYYCAKPRDGYNLVAFDIWGQGTMVTVSS
VL: QLVLTQPPSVSGAPGQRVIISCTGSSSNIGAGYDVHWYQQVPGTAPKLLIYGNNHRPSGVPDRFSGSKSGTSASLAITGLQAEDETDYYCQSYDNRLSGSLFGGGTKLTVL
notes: also called PD-L1-16E12-4A11
As for B7, the “Average *EC50 [nM]” value in test [1] came out at 0.34 nM. Besides, in test [2], the “EC50 (first run)” value worked out at 0.37 nM and the “EC50 (second run)” value was 0.36 nM. In test [3], this molecule had a Bmax of 4230 and a Kd of 2.57 nM. In the test with PD-L1-hFc, this molecule came in with a dissociation constant (Kd) of 0.0798 nM, an off-rate constant (koff) of 1.28e-05 s⁻¹ and an on-rate (kon) of 160000 M⁻¹ s⁻¹.

B8: PDL1-16E12 (LS/4A7) (antibody, V domains shown)
VH: QMQLVQSGAEVKKPGSSVKVSCKASGGTFSSYAISWVRQAPGQGLEWMGRIIPILGIANYAQKFQGRVTITADKSTSTAYMELSSLRSEDTAVYYCAKPRDGYNLVAFDIWGQGTMVTVSS
VL: QLVLTQPPSVSGAPGQRVTISCTGSSSNIGAGYDVHWYQSLPGTVPKLLISGNSNRPPGVPDRFSGSKSGTSASLAITSLQSEDEADYYCHSYDGSLSEGVFGTGTKVTVL
notes: also called PD-L1-16E12-4A7
Turning to B8, in test [1], the “Average *EC50 [nM]” value is 0.37 nM. For the same molecule, in test [2], the “EC50 (first run)” value stood at 0.38 nM and the “EC50 (second run)” value was determined as 0.4 nM. In test [3], this molecule had a Bmax of 4260 and a Kd of 3.92 nM. Further, in the test with PD-L1-hFc, the Kd is 0.0396 nM and the on-rate (kon) was 161000 M⁻¹ s⁻¹.
